Reference: PMC10945275

Experiments:
Assay in all cases: radioligand binding
G574V-EGF receptor = G574V-EGF receptor (UniProt P00533)
wild-type EGF receptor = wild-type EGF receptor (UniProt P00533)
R84K-EGF receptor = R84K-EGF receptor (UniProt P00533)
A265V-EGF receptor = A265V-EGF receptor (UniProt P00533)

EC50 (G574V-EGF receptor): 0.17 nM | EC50 (wild-type EGF receptor): 0.75 nM | EC50 (R84K-EGF receptor): 0.036 nM | EC50 (A265V-EGF receptor): 0.28 nM
Substance: 125I-EGF (ligand)
